Measurements as given in patent publication US20260167959A1, “APTAZYME-BASED REGULATABLE GENE EXPRESSION SYSTEMS” (REJUVENATE BIO INC, priority 2022, published 2026).
Substitutions are numbered along the chain they refer to.

B1: RA195 (nucleic acid)
DNA: GCGCGTCGAGAATACCAGCATCGTCTTGATGCCCTTGGAAGTCTCGCCTGGATTCGCGGAAACGCGTACATCCAGCTGACGAGTCCCAAATAGGACGAAACGCGC
modifications: expressed or natural sequence
B2: RA204 (nucleic acid)
DNA: GCGCGTCCCGGAATACCAGCATCGTCTTGATGCCCTTGGAAGTCCGTGGATTCGCGGAAACGCGTACATCCAGCTGACGAGTCCCAAATAGGACGAAACGCGC
modifications: expressed or natural sequence
B3: RA191 (nucleic acid)
DNA: GCGCGTCCTGGATTCGCGGAACGAGAATACCAGCATCGTCTTGATGCCCTTGGAAGTCTCGACGCGTACATCCAGCTGACGAGTCCCAAATAGGACGAAACGCGC
modifications: expressed or natural sequence
B4: RA190 (nucleic acid)
DNA: GCGCGTCCTGGATTCGCGAGTGATACCAGCATCGTCTTGATGCCCTTGGCAGCACTGAAACGCGTACATCCAGCTGACGAGTCCCAAATAGGACGAAACGCGC
modifications: expressed or natural sequence
B5: RA208 (nucleic acid)
DNA: GCGCGTCCTGGATTCGCGGAAACGCGTACATCCAGCTGACGAGTCCCAAACCGGAATACCAGCATCGTCTTGATGCCCTTGGAAGTCCGGTAGGACGAAACGCGC
modifications: expressed or natural sequence
B6: RA194 (nucleic acid)
DNA: GCGCGTCCTGGATTCGCGGAAACGCGTACATCCAGCTGACGAGAATACCAGCATCGTCTTGATGCCCTTGGAAGTCTCGAGTCCCAAATAGGACGAAACGCGC
modifications: expressed or natural sequence
B7: RA196 (nucleic acid)
DNA: GCGCGTCCTGGATTCGCGGAAACGCGTACATCCAGCTGACGAGTCCCAAATGAGAATACCAGCATCGTCTTGATGCCCTTGGAAGTCTCAGGACGAAACGCGC
modifications: expressed or natural sequence
B8: RA216 (nucleic acid)
DNA: GCGCGTCCTGGATTCGCGGAAACGCGTACATCCAGCTGACGAGTCAGTGATACCAGCATCGTCTTGATGCCCTTGGCAGCACTCCAAATAGGACGAAACGCGC
modifications: expressed or natural sequence
B9: RA188 (nucleic acid)
DNA: GCGCGTCCTGGATTCGCGGAAACGCGTACATCCAGCTGACGAGTCCCAAATAGGACGAAGAGAATACCAGCATCGTCTTGATGCCCTTGGAAGTCTCACGCGC
modifications: expressed or natural sequence
B10: RA192 (nucleic acid)
DNA: GCGCGTCCTGGATTCGCGGAAACGCGTACATCCAGCTGACGAGTCCCAAATGGAATACCAGCATCGTCTTGATGCCCTTGGAAGTCCAGGACGAAACGCGC
modifications: expressed or natural sequence
B11: RA205 (nucleic acid)
DNA: GCGCGTCCTGGATTCGCGGAAACGCGTACATCCAGCTGACGAGTCCCAAATAGGACGAAACGCGGAATACCAGCATCGTCTTGATGCCCTTGGAAGTCCGC
modifications: expressed or natural sequence
B12: RA207 (nucleic acid)
DNA: GCGCGTCCTGGATTCGCGGAAACGCGTACATCCAGCTGACGAGTCCCAAGAGAATACCAGCATCGTCTTGATGCCCTTGGAAGTCTCATAGGACGAAACGCGC
modifications: expressed or natural sequence
B13: RA206 (nucleic acid)
DNA: GCGCGTCCTGGATTCGCCGGAATACCAGCATCGTCTTGATGCCCTTGGAAGTCCGGCGGAAACGCGTACATCCAGCTGACGAGTCCCAAATAGGACGAAACGCGC
modifications: expressed or natural sequence
B14: RA211 (nucleic acid)
DNA: GCGCGTCCTGGATTCGGGAATACCAGCATCGTCTTGATGCCCTTGGAAGTCCCGGAAACGCGTACATCCAGCTGACGAGTCCCAAATAGGACGAAACGCGC
modifications: expressed or natural sequence
B15: RA193 (nucleic acid)
DNA: CCGGAATACCAGCATCGTCTTGATGCCCTTGGAAGTCCGGGCGCGTCCTGGATTCGCGGAAACGCGTACATCCAGCTGACGAGTCCCAAATAGGACGAAACGCGC
modifications: expressed or natural sequence
B16: RA209 (nucleic acid)
DNA: GCGCGTCCTGGATTCGCGGAGAGAATACCAGCATCGTCTTGATGCCCTTGGAAGTCTCAACGCGTACATCCAGCTGACGAGTCCCAAATAGGACGAAACGCGC
modifications: expressed or natural sequence
B17: RA020 (nucleic acid)
DNA: GCGCGTCCTGGATTCGCGGAAACGCGTACATCGGAATACCAGCATCGTCTTGATGCCCTTGGAAGTCCGCCAGCTGACGAGTCCCAAATAGGACGAAACGCGC
modifications: expressed or natural sequence
B18: RA214 (nucleic acid)
DNA: GCGCGTCCTGGATTCGCGAGAATACCAGCATCGTCTTGATGCCCTTGGAAGTCTCGGAAACGCGTACATCCAGCTGACGAGTCCCAAATAGGACGAAACGCGC
modifications: expressed or natural sequence
B19: RA189 (nucleic acid)
DNA: GCGCGTCCTGGATTCGGAATACCAGCATCGTCTTGATGCCCTTGGAAGTCCGCGGAAACGCGTACATCCAGCTGACGAGTCCCAAATAGGACGAAACGCGC
modifications: expressed or natural sequence
B20: RA212 (nucleic acid)
DNA: B19 DNA with G16A, C51T
modifications: expressed or natural sequence
B21: RA200 (nucleic acid)
DNA: GCGCGTCCTGGATTCGCGGAAACGCGTACATCCGAGAATACCAGCATCGTCTTGATGCCCTTGGAAGTCTCGCAGCTGACGAGTCCCAAATAGGACGAAACGCGC
modifications: expressed or natural sequence
B22: RA201 (nucleic acid)
DNA: GCGCGTCCTGGATTCGCGGAAACGCGAGAATACCAGCATCGTCTTGATGCCCTTGGAAGTCTCGCGTACATCCAGCTGACGAGTCCCAAATAGGACGAAACGCGC
modifications: expressed or natural sequence
B23: RA213 (nucleic acid)
DNA: GCGCGTCCTGGATTCGCGGAAACGCGTACATCCAGCTCGAGAATACCAGCATCGTCTTGATGCCCTTGGAAGTCTCGGACGAGTCCCAAATAGGACGAAACGCGC
modifications: expressed or natural sequence
B24: RA203 (nucleic acid)
DNA: GCGCGTCCTGGATTCGCGGAAACGCGTACATCCAGCTGACGAGTCCCAAATAGGAAGAATACCAGCATCGTCTTGATGCCCTTGGAAGTCTCGAAACGCGC
modifications: expressed or natural sequence
B25: RA019 (nucleic acid)
DNA: GCGCGTCCTGGATTCGCGGAAACGCGTACATCCAGCTGACGGGAATACCAGCATCGTCTTGATGCCCTTGGAAGTCCAGTCCCAAATAGGACAAAACGCGC
modifications: expressed or natural sequence
B26: RA202 (nucleic acid)
DNA: GCGCGTCCTGGATAGTGATACCAGCATCGTCTTGATGCCCTTGGCAGCACTTCGCGGAAACGCGTACATCCAGCTGACGAGTCCCAAATAGGACGAAACGCGC
modifications: expressed or natural sequence
B27: RA198 (nucleic acid)
DNA: GCGCGTCCTGAGAATACCAGCATCGTCTTGATGCCCTTGGAAGTCTGATTCGCGGAAACGCGTACATCCAGCTGACGAGTCCCAAATAGGACGAAACGCGC
modifications: expressed or natural sequence
B28: RA199 (nucleic acid)
DNA: GCGCGTCCTGGATTCGCGGAAACAGTGATACCAGCATCGTCTTGATGCCCTTGGCAGCACTGCGTACATCCAGCTGACGAGTCCCAAATAGGACGAAACGCGC
modifications: expressed or natural sequence
B29: RA197 (nucleic acid)
DNA: GCGCGTCCTGGATTCGCGGAAACGCGTACATCCAGCTGACGAGTCCCAAATAGGACAAAACGCGC
modifications: expressed or natural sequence

The molecules below were run on Renilla luciferase RNA (assay: Barcoded aptazyme variant library screen: un-cleaved Renilla luciferase RNA by barcode read counts, HEK293-T cells). Settings: un-cleaved Renilla luciferase RNA, HEK293-T cells cultured with 1 mM theophylline (ON) over without theophylline (OFF); barcode read counts, triplicate.
Type: cell-based
Outline: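 Aptazyme variants (seven theophylline aptamers inserted after each T3H48 ribozyme nucleotide, 9-nt barcoded) cloned into the 3′ UTR of Renilla luciferase in psiCHECK-2; cells cultured ± theophylline, in triplicate. RNA and DNA barcodes amplified and sequenced; normalized read counts gave un-cleaved RNA fraction and ON/OFF fold-change.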

Fold change in RNA expression between the ON state and the OFF state, 2.7 fold:
B17
B25

Fold change in RNA expression between the ON state and the OFF state, 1.2 fold:
B1
B2
B3
B4
B5
B6
B7
B8
B9
B10
B11
B12
B13
B14
B15
B16
B18
B19
B20
B21
B22
B23
B24
B26
B27
B28
B29
